Measurements taken from US20140194025A1, “Production of Highly Concentrated Solutions of Self-Assembling Proteins” (Freudenberg Forschungsdienste KG, priority 2010, published 2014).

Test: Solubility of the hydrophobic protein and its fragments
Format: physicochemical

B1: R16 protein: synthetic combination protein formed from silk proteins and resilins, polypeptide sequence SEQ ID NO: 4 (protein)
chain: MASMTGGQQMGRGSMGPGSSAAAAAAAASGPGQGQGQGQGQGGRPSDTYGPGSSAAAAAAAASGPGQGQGQGQGQGGRPSDTYGPGSSAAAAAAAASGPGQGQGQGQGQGGRPSDTYGPGSSAAAAAAAASGPGQGQGQGQGQGGRPSDTYGPGSSAAAAAAAASGPGQGQGQGQGQGGRPSDTYGPGSSAAAAAAAASGPGQGQGQGQGQGGRPSDTYGPGSSAAAAAAAASGPGQGQGQGQGQGGRPSDTYGPGSSAAAAAAAASGPGQGQGQGQGQGGRPSDTYGPGSSAAAAAAAASGPGQGQGQGQGQGGRPSDTYGPGSSAAAAAAAASGPGQGQGQGQGQGGRPSDTYGPGSSAAAAAAAASGPGQGQGQGQGQGGRPSDTYGPGSSAAAAAAAASGPGQGQGQGQGQGGRPSDTYGPGSSAAAAAAAASGPGQGQGQGQGQGGRPSDTYGPGSSAAAAAAAASGPGQGQGQGQGQGGRPSDTYGPGSSAAAAAAAASGPGQGQGQGQGQGGRPSDTYGPGSSAAAAAAAASGPGQGQGQGQGQGGRPSDTYG
solubility in water: about 1%
